Data: patent US20210155711A1
One block for each substance: values may come before it.

Tests used:
[1] = target: human FcγRI (recombinant, polyhistidine-tagged) (human) (UniProt P12314); experiment: SPR (BIACORE 3000), His-tagged receptor captured on anti-His IgG, antibody injected; 1:1 steady state fit
[2] = target: recombinant human FcRn (transmembrane and cytoplasmic domains replaced with a poly-histidine tag) (human) (UniProt P55899); experiment: … bead competition: unlabelled test antibody against biotinylated human IgG1 CNT06234 for recombinant FcRn, pH 6.4
[3] = target: human FcγRIIIa (recombinant, Example 1) (human) (UniProt P08637); experiment: SPR (BIACORE 3000), His-tagged receptor captured on anti-His IgG, antibody injected; 1:1 steady state fit
[4] = target: human FcγRIIa (recombinant, Example 1; allotype not stated) (human) (UniProt P12318); experiment: as above
[5] = target: human FcγRIIa (recombinant, Example 1; allotype not stated) (human) (UniProt P12318); experiment: … bead competition: unlabelled test antibody against a biotinylated control antibody (human IgG1 CNT06234 by paragraph 15/paragraph 85; paragraph 86 says 'against IgG2') for recombinant FcgRIIa
[6] = target: human FcγRI (recombinant, polyhistidine-tagged) (human) (UniProt P12314); experiment: SPR (BIACORE 3000), His-tagged receptor captured on anti-His IgG, antibody injected; 1:1 kinetic fit
[7] = target: human FcγRIIIa (recombinant, Example 1) (human) (UniProt P08637); experiment: as above
[8] = target: human FcγRIIa (recombinant, Example 1; allotype not stated) (human) (UniProt P12318); experiment: … direct binding (avidity) assay: biotinylated test antibody and recombinant His-tagged FcgRIIa on donor and acceptor beads

Chain of human FcγRIIIa (recombinant, Example 1) (human) (P08637 17-208 F176V limits assumed): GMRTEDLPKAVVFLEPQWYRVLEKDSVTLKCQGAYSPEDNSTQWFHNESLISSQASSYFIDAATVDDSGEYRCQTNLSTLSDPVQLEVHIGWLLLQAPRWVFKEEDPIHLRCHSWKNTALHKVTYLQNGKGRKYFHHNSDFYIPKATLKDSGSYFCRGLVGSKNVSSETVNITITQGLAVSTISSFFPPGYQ
Chain of human FcγRIIa (recombinant, Example 1; allotype not stated) (human) (P12318 36-218 limits assumed): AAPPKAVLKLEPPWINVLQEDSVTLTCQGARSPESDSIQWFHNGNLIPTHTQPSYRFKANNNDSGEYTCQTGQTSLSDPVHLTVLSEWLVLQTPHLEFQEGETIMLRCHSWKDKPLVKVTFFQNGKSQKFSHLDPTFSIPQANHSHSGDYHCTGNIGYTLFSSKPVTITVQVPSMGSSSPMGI
Chain of human FcγRI (recombinant, polyhistidine-tagged) (human) (P12314 16-288 limits assumed): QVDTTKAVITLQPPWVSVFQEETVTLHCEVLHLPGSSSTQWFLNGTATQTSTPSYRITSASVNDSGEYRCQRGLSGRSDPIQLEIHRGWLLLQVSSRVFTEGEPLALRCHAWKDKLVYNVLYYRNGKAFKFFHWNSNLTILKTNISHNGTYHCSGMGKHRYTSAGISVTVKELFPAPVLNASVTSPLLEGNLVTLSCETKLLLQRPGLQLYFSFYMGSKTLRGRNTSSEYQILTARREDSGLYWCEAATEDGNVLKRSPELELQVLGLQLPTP
Chain of recombinant human FcRn (transmembrane and cytoplasmic domains replaced with a poly-histidine tag) (human) (P55899 other isoform, or with tags, fused parts or gaps, form in doubt): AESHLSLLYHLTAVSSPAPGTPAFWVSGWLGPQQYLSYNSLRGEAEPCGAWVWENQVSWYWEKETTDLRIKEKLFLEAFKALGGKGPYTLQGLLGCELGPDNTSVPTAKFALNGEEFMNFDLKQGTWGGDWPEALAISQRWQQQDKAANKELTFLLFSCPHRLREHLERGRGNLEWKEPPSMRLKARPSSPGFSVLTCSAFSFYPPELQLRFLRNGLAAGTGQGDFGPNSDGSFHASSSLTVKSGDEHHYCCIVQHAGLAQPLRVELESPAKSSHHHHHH

Substance: IgG1 Ag (human IgG1 N297A, aglycosylated, anti-Her2/neu construct) (antibody)
- Kd [1]: 3.7 µM
- IC50 (read off the curve) [2]: 100 µg/mL

Substance: IgG2c4b (human IgG2 V234A, G237A, H268Q, V309L, A330S, P331S, anti-Her2/neu construct) (antibody)
- Kd [1]: 38 µM
- Kd [4]: 170 µM
- IC50 (read off the curve) [2]: 60 µg/mL
- IC50 (read off the curve) [5]: 100 µg/mL

Substance: IgG2c4c (human IgG2 V234A, G237A, H268A, V309L, A330S, P331S, anti-Her2/neu construct) (antibody)
- Kd [6]: 0.044 µM
- Kd [7]: 0.64 µM
- Kd [4]: 19 µM
- IC50 (read off the curve) [5]: 60 µg/mL

Substance: IgG2c4e (human IgG2 P233S, V234A, G237A, P238S, H268A, V309L, A330S, P331S, anti-Her2/neu construct) (antibody)
- IC50 (read off the curve) [2]: 100 µg/mL

Substance: IgG4 A/A (human IgG4 S228P, F234A, L235A, anti-Her2/neu construct) (antibody)
- Kd [1]: 15 µM
- Kd [3]: 55 µM
- Kd [4]: 150 µM
- IC50 (read off the curve) [2]: 100 µg/mL

Continued by falling Kd [4], values first:

- Kd [1]: 210 µM
- Kd [3]: 95 µM
- Kd [4]: 2.7 µM
- IC50 (read off the curve) [2]: 80 µg/mL
- EC50 (read off the curve) [8]: 0.2 µg/mL
- IC50 (read off the curve) [5]: 30 µg/mL
Substance: IgG2m4 (human IgG2 H268Q, V309L, A330S, P331S, anti-Her2/neu construct) (antibody)

- Kd [1]: 160 µM
- Kd [3]: 85 µM
- Kd [4]: 2.2 µM
- IC50 (read off the curve) [2]: 60 µg/mL
- IC50 (read off the curve) [5]: 20 µg/mL
Substance: IgG2c4a (human IgG2 H268A, V309L, A330S, P331S, anti-Her2/neu construct) (antibody)

- Kd [6]: 0.013 µM
- Kd [4]: 1.7 µM
- IC50 (read off the curve) [2]: 70 µg/mL
- EC50 (read off the curve) [8]: 0.1 µg/mL
- IC50 (read off the curve) [5]: 6 µg/mL
Substance: huIgG1 (wild type human IgG1 isotype antibody, anti-Her2/neu construct)

- Kd [1]: 120 µM
- Kd [3]: 41 µM
- Kd [4]: 1 µM
- IC50 (read off the curve) [2]: 80 µg/mL
- EC50 (read off the curve) [8]: 0.2 µg/mL
- IC50 (read off the curve) [5]: 50 µg/mL
Substance: huIgG2 (wild type human IgG2 isotype antibody, anti-Her2/neu construct)
